Test results reported in patent publication US6476190.

Key:
[1] = system: 2-aminobenzoyl-Thr-Ile-Nle-Phe(p-NO2)-Gln-Arg-NH2 (SEQ. ID NO. 4)
[2] = system: Ac-Thr-Ile-Nle-Nle-Gln-Arg-NH2 (SEQ ID NO 1)

| Substance | fluorogenic assay (fluorescence against time of incubation) [1] | cleavage of the peptide substrate (reverse phase HPLC; products identified by ion spray mass spectrometry) [2] |
| --- | --- | --- |
| [(NHCH2COSCH2CO)^51-52 Aba^67,95] HIV-1 PR | showed identical activities | The peptide products were identified by ion spray mass spectrometry as (H)-Nle-Gln-Arg. NH2 (early eluting) and Ac-Thr-Ile-Nle-(OH) (late eluting) |
| {Aba^67,95,167,195} HIV-1 PR | showed identical activities | – |
